Substrate: O=C(O)[C@H]1O[C@H](OP(=O)(O)OP(=O)(O)OC[C@H]2O[C@@H](n3ccc(=O)[nH]c3=O)[C@H](O)[C@@H]2O)[C@H](O)[C@@H](O)[C@@H]1O
Assay: HPLC of UDP-GalA formation, Lineweaver-Burk plot
Assay type: biochemical, Albuca bracteata
Conditions: 100 mM PBS, pH 7.8, 37 °C, 20 min, 0.156-10 mM UDP-GlcA, unpurified Pichia supernatant, substrate misprinted UDP-D-Glc, UDP-GlcA in b32 and b56

B1: OcUGlcAE3 (Albuca bracteata) (protein)
chain: MDAMISPSTPGKFKPEKPHHHLHHHHHRPLFRLQHSPLFKCGLIVVCASVVVVLLLCLAPSHPSSSSSSSSSPFAASRIERRSLSASSSSSWGGAEWEKRVRYSARIRRVGGFSVLVTGAGGFVGTHVSAALKRRGDGVLGLDCFNDYYEPSLKRARQALLDRIGVFVVEGDINDGPLLRKLFDVVPFTHVMHLAAQAGVRYAMKNPASYVHSNIAGLVTLLEACKSADPQPAVVWASSSSVYGLNTKVPFSEFHRTDRPASLYAATKKAGEEIAHTYNHIYGLSITGLRFFTVYGPWGRPDMAYFFFTNDLLNGKPITIFEGPKGESVARDFTYIDDIVQGCIGALDTAKKSTGTGGKKRGPAQLRVYNLGNTSPVPVTELVTILERLLKVKANKKVVKMPANGDVQFTHANISLAQRELGYHPTTDLKTGLKRFVRWYIEYYNPPGVASLTKKSARSNSS
notes: full-length ORF (1389 bp); 12,000 g/160,000 g lysate supernatant, unpurified
Question: For B1, which Km is on record?
Answer: The Km was 170 ± 70 µM.
